IntAct's records for PubMed 16282588

What was measured:
[1] = biological target: tdg_human TDG (UniProt Q13569)
[2] = biological target: tdg_mouse Tdg (UniProt P56581)
[3] = biological target: tdg_human TDG (UniProt Q13569); remark: listed apart in the source

tdg_human TDG, sequence (Q13569 whole entry): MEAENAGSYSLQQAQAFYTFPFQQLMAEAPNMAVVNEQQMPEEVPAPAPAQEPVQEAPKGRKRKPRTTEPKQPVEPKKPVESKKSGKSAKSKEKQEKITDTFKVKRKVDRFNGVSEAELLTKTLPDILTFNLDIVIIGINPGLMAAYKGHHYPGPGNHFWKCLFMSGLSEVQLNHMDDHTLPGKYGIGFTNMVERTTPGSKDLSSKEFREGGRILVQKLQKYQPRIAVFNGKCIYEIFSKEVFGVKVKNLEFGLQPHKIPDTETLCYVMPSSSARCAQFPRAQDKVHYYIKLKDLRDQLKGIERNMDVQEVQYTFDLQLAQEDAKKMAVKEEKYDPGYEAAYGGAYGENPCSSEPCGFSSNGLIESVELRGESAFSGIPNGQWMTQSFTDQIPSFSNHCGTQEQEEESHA
tdg_mouse Tdg, sequence (P56581 whole entry): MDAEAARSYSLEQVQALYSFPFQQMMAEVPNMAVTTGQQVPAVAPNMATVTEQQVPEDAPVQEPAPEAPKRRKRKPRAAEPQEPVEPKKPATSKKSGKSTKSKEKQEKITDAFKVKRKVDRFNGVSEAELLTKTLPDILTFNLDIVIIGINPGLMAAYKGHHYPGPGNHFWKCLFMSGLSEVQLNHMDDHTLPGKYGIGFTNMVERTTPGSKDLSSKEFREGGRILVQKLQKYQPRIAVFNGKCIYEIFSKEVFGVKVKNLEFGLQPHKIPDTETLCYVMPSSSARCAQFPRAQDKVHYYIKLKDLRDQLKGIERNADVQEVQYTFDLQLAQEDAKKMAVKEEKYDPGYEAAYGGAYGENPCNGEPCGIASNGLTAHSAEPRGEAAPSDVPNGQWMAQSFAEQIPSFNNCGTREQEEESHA
Nuclear receptor coactivator 1 (Homo sapiens), Q15788-2 Y1169F, sequence (Q15788 other isoform, or with tags, fused parts or gaps Y1169F): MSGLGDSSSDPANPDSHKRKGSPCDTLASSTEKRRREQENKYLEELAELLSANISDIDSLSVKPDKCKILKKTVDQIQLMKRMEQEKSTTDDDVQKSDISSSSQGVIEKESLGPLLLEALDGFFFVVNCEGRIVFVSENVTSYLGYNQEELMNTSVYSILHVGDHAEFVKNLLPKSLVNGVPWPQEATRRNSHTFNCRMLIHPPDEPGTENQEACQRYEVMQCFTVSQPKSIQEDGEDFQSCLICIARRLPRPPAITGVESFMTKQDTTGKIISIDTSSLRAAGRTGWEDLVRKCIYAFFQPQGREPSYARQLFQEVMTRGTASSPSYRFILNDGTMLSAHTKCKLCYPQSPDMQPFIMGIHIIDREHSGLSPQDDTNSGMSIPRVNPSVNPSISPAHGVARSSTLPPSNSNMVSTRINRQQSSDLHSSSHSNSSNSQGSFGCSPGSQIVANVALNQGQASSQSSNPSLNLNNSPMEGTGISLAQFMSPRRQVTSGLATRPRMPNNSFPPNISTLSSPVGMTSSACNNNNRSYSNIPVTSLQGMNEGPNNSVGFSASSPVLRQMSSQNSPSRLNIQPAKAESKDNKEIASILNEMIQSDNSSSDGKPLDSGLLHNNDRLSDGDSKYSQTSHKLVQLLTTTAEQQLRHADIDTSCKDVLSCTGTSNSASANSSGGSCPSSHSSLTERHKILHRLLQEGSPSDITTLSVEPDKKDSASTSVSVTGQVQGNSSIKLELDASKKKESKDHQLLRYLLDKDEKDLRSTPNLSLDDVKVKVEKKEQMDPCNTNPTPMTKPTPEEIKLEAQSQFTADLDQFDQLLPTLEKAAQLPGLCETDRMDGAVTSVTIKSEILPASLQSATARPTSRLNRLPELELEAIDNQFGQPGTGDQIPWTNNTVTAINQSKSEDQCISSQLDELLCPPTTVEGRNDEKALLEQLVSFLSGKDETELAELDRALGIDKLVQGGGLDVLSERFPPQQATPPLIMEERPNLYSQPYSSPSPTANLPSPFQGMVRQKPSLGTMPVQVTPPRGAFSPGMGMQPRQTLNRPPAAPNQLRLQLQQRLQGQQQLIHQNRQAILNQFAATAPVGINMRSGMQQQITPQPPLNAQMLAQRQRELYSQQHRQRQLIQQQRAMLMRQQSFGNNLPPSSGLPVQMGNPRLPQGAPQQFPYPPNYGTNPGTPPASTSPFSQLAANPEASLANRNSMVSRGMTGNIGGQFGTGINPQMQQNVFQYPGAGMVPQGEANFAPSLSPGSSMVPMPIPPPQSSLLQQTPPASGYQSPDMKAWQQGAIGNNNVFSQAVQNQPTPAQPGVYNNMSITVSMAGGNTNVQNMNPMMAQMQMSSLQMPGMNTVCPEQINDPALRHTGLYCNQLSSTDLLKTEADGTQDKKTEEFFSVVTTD
Nuclear receptor coactivator 1 (Homo sapiens), Q15788-2 Y991F;Y1169F, sequence (Q15788 other isoform, or with tags, fused parts or gaps Y991F;Y1169F): as the sequence (Q15788 other isoform, or with tags, fused parts or gaps Y1169F) above
Nuclear receptor coactivator 1 (Homo sapiens), Q15788-2 Y991F, sequence (Q15788 other isoform, or with tags, fused parts or gaps Y991F): as the sequence (Q15788 other isoform, or with tags, fused parts or gaps Y1169F) above

Nuclear receptor coactivator 1 (Homo sapiens), Q15788 Y991F
effect of a mutation on the interaction [1]: decreasing interaction strength
effect of a mutation on the interaction [2]: decreasing interaction strength

Nuclear receptor coactivator 1 (Homo sapiens), Q15788 Y991F;Y1169F
effect of a mutation on the interaction [1]: decreasing interaction strength
effect of a mutation on the interaction [2]: decreasing interaction strength

Nuclear receptor coactivator 1 (Homo sapiens), Q15788 Y1169F
effect of a mutation on the interaction [1]: decreasing interaction strength
effect of a mutation on the interaction [2]: decreasing interaction strength

Nuclear receptor coactivator 1 (Homo sapiens), Q15788-2 Y991F
effect of a mutation on the interaction [3]: decreasing interaction strength

Nuclear receptor coactivator 1 (Homo sapiens), Q15788-2 Y991F;Y1169F
effect of a mutation on the interaction [3]: disrupting interaction strength

Nuclear receptor coactivator 1 (Homo sapiens), Q15788-2 Y1169F
effect of a mutation on the interaction [3]: disrupting interaction strength
